Literature values, collected in publication PMC6903724.

Molecular target: IL-18 (Homo sapiens) (UniProt Q14116)
Sequence (Q14116 37-193): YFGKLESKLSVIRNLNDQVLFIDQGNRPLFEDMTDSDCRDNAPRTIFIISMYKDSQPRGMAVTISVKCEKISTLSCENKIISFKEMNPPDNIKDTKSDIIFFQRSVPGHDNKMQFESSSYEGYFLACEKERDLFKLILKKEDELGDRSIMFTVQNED

Sequence of IL-18BP (O95998 31-194): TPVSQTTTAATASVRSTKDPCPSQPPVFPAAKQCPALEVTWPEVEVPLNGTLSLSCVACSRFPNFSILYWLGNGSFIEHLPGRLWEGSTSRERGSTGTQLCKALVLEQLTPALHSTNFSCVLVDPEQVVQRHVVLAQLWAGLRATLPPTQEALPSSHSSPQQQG

Substance: IL-18BP (from UniProt O95998)
- Kd: 0.4 nM
